PMC9463131, “SLITRK1-mediated noradrenergic projection suppression in the neonatal prefrontal cortex” (Communications Biology, 2022)

Legend:
[1] = molecular target: T1, human PTPRD ECD-His6 (ACROBiosystems) (human, UniProt P23468 21-1265); test: quartz crystal microbalance; AffinixQ, 27 MHz; about 200 femtomoles SLITRK1 ECD-Fc (WT, S330A or A444S) immobilised through anti-human IgG Fc on the gold resonator; ECD-His6 proteins added at several concentrations; 50 mM Tris-HCl pH 7.6, 15 mM NaCl, 140 mM KCl, 0.5 mM MgCl2, 2 mM CaCl2; 25 ± 1 °C; KD = koff/kon; details: both partners purified
T1 construct: human receptor-type protein tyrosine phosphatase delta (PTPRD), extracellular domain; No catalogue number printed; also called PTPRδ; source: bought: ACROBiosystems
T1 sequence (looked up): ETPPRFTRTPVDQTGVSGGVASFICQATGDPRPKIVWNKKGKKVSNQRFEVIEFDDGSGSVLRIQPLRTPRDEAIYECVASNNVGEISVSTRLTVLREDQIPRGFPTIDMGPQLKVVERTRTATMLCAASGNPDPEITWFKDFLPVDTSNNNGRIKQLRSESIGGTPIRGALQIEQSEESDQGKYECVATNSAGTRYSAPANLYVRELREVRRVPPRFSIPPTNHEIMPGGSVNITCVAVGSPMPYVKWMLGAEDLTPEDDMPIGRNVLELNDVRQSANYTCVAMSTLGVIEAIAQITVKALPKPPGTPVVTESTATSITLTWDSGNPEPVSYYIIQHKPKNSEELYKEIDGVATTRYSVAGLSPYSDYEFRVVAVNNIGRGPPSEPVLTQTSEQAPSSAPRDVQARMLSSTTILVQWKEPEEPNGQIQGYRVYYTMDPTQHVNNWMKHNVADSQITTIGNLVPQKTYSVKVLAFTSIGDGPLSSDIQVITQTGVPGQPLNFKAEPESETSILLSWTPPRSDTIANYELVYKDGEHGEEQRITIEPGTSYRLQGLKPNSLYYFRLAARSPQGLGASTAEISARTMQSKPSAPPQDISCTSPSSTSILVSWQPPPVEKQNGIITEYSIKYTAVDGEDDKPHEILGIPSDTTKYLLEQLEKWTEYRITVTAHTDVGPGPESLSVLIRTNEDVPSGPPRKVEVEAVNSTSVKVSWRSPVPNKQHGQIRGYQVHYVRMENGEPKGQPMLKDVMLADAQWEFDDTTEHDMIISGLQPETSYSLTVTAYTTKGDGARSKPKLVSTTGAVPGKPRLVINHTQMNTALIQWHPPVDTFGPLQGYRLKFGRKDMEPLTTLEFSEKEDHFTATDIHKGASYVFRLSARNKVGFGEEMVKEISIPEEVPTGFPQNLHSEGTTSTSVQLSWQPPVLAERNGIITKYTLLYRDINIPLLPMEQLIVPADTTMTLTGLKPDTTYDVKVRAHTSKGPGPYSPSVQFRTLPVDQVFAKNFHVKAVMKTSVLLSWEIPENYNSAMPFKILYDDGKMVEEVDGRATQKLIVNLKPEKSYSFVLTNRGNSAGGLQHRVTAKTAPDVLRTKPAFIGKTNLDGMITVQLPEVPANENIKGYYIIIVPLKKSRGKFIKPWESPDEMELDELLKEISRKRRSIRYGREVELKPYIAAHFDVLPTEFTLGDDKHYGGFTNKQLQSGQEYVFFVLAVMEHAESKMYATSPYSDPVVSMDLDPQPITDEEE

[2] = molecular target: T2, L1CAM ECD-His6 (777-NC-100, R&D Systems) (UniProt P32004 20-1120); test: as above; details: both partners purified
T2 construct: L1CAM extracellular domain; source: bought: R&D Systems (777-NC-100)
T2 sequence (P32004 20-1120): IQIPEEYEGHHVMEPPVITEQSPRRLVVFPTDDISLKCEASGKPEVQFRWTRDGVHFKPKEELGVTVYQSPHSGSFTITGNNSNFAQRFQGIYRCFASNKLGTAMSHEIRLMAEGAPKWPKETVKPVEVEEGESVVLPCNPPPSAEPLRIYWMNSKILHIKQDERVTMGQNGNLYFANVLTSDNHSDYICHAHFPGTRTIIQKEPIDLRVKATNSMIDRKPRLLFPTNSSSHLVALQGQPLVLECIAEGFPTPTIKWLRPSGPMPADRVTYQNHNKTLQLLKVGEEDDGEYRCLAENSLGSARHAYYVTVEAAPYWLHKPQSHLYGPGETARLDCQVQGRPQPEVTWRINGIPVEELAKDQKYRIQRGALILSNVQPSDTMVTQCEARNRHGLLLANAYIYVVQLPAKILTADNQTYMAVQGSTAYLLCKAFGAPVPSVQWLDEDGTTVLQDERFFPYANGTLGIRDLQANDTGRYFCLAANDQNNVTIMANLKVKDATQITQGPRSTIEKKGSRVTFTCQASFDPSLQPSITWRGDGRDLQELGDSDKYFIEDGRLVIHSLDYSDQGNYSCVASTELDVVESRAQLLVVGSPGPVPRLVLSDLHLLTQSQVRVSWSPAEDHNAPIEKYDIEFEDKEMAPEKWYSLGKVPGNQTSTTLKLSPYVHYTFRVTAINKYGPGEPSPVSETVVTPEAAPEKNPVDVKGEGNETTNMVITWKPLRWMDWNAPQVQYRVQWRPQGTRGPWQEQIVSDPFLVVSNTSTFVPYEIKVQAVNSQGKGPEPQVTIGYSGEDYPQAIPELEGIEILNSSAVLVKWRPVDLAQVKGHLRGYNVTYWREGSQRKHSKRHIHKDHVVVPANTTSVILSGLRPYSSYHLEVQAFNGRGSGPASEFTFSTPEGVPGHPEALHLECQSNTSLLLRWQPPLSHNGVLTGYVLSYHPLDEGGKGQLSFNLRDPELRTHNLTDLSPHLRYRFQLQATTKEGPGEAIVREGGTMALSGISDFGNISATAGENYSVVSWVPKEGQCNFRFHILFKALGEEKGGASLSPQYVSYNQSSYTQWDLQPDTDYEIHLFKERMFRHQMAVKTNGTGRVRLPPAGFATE

B1: SLITRK1 ECD-immunoglobulin Fc domain-fusion protein (SLITRK1-WT-Fc) (Fc fusion, human, UniProt Q96PX8 18-616, looked up)
chain: NVTGDVCKEKICSCNEIEGDLHVDCEKKGFTSLQRFTAPTSQFYHLFLHGNSLTRLFPNEFANFYNAVSLHMENNGLHEIVPGAFLGLQLVKRLHINNNKIKSFRKQTFLGLDDLEYLQADFNLLRDIDPGAFQDLNKLEVLILNDNLISTLPANVFQYVPITHLDLRGNRLKTLPYEEVLEQIPGIAEILLEDNPWDCTCDLLSLKEWLENIPKNALIGRVVCEAPTRLQGKDLNETTEQDLCPLKNRVDSSLPAPPAQEETFAPGPLPTPFKTNGQEDHATPGSAPNGGTKIPGNWQIKIRPTAAIATGSSRNKPLANSLPCPGGCSCDHIPGSGLKMNCNNRNVSSLADLKPKLSNVQELFLRDNKIHSIRKSHFVDYKNLILLDLGNNNIATVENNTFKNLLDLRWLYMDSNYLDTLSREKFAGLQNLEYLNVEYNAIQLILPGTFNAMPKLRILILNNNLLRSLPVDVFAGVSLSKLSLHNNYFMYLPVAGVLDQLTSIIQIDLHGNPWECSCTIVPFKQWAERLGSEVLMSDLKCETPVNFFRKDFMLLSNDEICPQLYARISPTLTSHSKNSTGLAETGTHSNSYLDTSRVS
notes: signal peptide in the construct; human SLITRK1 extracellular domain, amino acid number 1-616 in NP_443142; also called SLITRK1 ECD-Fc; SLITRK1 ECD-Fc fusion protein
Kd [1]: 152 nM
Kd [2]: 5.47 nM
